Fewer inactive variants are shown than the library holds.
B1: TPR 5TU (parent)
chain: GGAUCUUCUCGAUCUAACAAAAAAGACAAAUCUGCCACAAAGCUUGAGAGCAUCUUCGGAUGCAGAGGCGGCAGCCUUCGGUGGCGCGAUAGCGCCAACGUUCUCAACUAUGACACGCAAAACGCGUGCUCCGUUGAAUGGAGUUUAUCAUG

Variants of: B1
Experiment: polymerase ribozyme fitness, log enrichment relative to wild type (log ratio); higher = more active; in vitro selection for triplet polymerase activity
How it was run: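 Each subunit of a heterodimeric triplet polymerase ribozyme was represented by a PCR-built, transcribed mutant library that underwent triplicate single-round in vitro selection with frozen incubation at −7 °C. Extended constructs were recovered by gel excision, streptavidin-bead capture and RT-PCR, and Illumina sequencing of input and output libraries kept genotypes with ≥10 input reads and ≥1 read per output. Fitness is the logarithm of genotype enrichment relative to wild-type enrichment, from inverse-variance-weighted replicate averages, with a logarithm base of 2.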

Variant	polymerase ribozyme fitness (log ratio)
A41G C87A A121G C123U G140A U146C C149G	≤ -4.2
A40C U55G G59C C75A U82G C96G U111G U148A A150C	≤ -4.2
A40C U56G A64U C87U G143U	≤ -4.2
A40C U77C C116A C125U	≤ -4.2
A40C C99U	0.519
A40U U109A	-1.86
A41C A91G C118G	-3.64
A41C C76A G84A A120C	-2.53
A40C G126A G128U	-4.14
A40C G67C G71C A98G C103A C105G	≤ -4.2
A41C U135C	-3.55
A40U U56A C85G C114G	-3.79
A40G A97G	-1.8
A41C G83U	-0.922
A40C U109C C116U C131U A147U	-2.36
A40U U55A G58C C85G A119U	-2.59
A41C A142G U144C G152A	-3.09
A40C G50U C69G C116U	-3.24
A40G C54G G126A	-3.46
A41C G46A C57U C95U A115G	-3.25
A40U C85U	-0.107
A40U C57U U61A U82G A98C A106U C116U A121U C132U A138C	≤ -4.2
A40U G68C C79U G84A C96A A138C	≤ -4.2
A41C A49C C75U C85A C105A A137U A142C G143U	≤ -4.2

Variant	polymerase ribozyme fitness (log ratio)
A41C G84A	-0.601
A40U G50C C57U U82A	-2.79
A40C U109C	-3.47
A41C C96A U146A	-0.97
A40C G50U C85U	0.316
A40U C105G	-0.905
A41G A89G G92U G100A G117C G133A G143U	≤ -4.2
A40C U56A G59A C87A A89C G112U A119U G143A	≤ -4.2
A40G C54A G68A G92A	≤ -4.2
A40U C95U G143U	≤ -4.2
A40C G84A G94A C131U U139A	-4.09
A41C U101G	-0.344
A40C G128U G143U	≤ -4.2
A41C A49C C75A C95A	≤ -4.2
A40U G92U A98C C103G A120C U134A	-3.87
A40U C95U C129A U134C	-3.65
A40C G59A G71U G94C U127C	≤ -4.2
A40U G92A A98U U145G A147U	-4.09
A40U U55G G58A A97G	-0.0754
A41C C132A	-2.55
A40G G80C U90G	≤ -4.2
A41G C63U	0.774
A41G G42A G92C U111C A113U C125G	≤ -4.2
A40U G92A A120C	-2.75

Variant	polymerase ribozyme fitness (log ratio)
A40C U45A A66U G83A G88U A97C A122U A138U	≤ -4.2
A41G C85A U130G G143U A147G	≤ -4.2
A41C U53A G92U	-1.22
A41C U144C A147U	-0.619
A41G G50C C93G C103U C123A U127C	≤ -4.2
A41C G59A G86U	-2.6
A41C C43A A60G	≤ -4.2
A41C G86U C123U	-2.13
A40G C118U	-2.18
A40U G71U C85G	≤ -4.2
A40U C114U A121C	-2.44
A40U A60C C72U G84U	-2.77
A40U A120U G133C	-1.72
A41G C75U C93G	-2.6
A41G C96A C149U	-0.509
A40C G59C C63A G65U C87A C95U C125A G126U	≤ -4.2
A41C C51U	-0.722
A40U G70C C79G A106G U135C U145G A150C	≤ -4.2
A40U G94A G126A	-0.19
A41C C43U C125U	≤ -4.2
A40U G42A C63U C114U A119C G141U G143A	≤ -4.2
A40U C63A C72A C76A C103G	≤ -4.2
A40U G59C C132U U145G	-1.94
A40U U55C U78G U151A	≤ -4.2

Variant	polymerase ribozyme fitness (log ratio)
A41C C96U A107U C131A G133A U146C	≤ -4.2
A41C C76U G84U	-2.96
A40G G92U C108U G124A G128U	≤ -4.2
A40U U130A	-3.96
A41C G92U	-1.08
A40C U53A A110C	-4.04
A40G A49G	-3.58
A41C C85U	-1.29
A40C U134G A142G U145A	-3.46
A40G C54U C96U G141U	-2.2
A41G C57A G59A G68U	≤ -4.2
A41C G50A G86A A98G	-3.62
A40C U55G C85U	0.238
A40U C95U G124C G133U	≤ -4.2
A40U G83C C96A G152A	-3.95
A41C A47G	-0.27
A40G A41U	-2.41
A41C G67C G83A C95G G143A	≤ -4.2
A40U C75U C95U A98U G140A	-3.39
A40G C85G A89G	≤ -4.2
A40G	-1.51
A40U	0.097
A41G C57U C85U C116U	0.221
A41C C43A A91C C99U A113U	≤ -4.2

Variant	polymerase ribozyme fitness (log ratio)
A40U A89C	-0.129
A40U C43U G70A U78G C87A A147G	≤ -4.2
A41G A47C G81C	-0.0928
A41C U53A U135A	-1.07
A40C U61A C76A	≤ -4.2
A40C U55G G84C C96U C103U C118U	-3.51
A41C C76U G81A A110C	≤ -4.2
A40U G88A	-3.65
A40G A64U U134G A142C	≤ -4.2
A41C A47C A60U	-2.01
A40U C79G G88U A107G C149A	≤ -4.2
A41C U56A C57A A115U C116U	-2.62
A40U C57G A91U A138U	≤ -4.2
A41C U127G G136U G141U	≤ -4.2
A40U A60G A89U U134C	-0.16
A40U U56A	-0.0589
A41C C125G	-0.815
A41C A52G G86U	-2.67
A40C U90C	-4.09
A40U A64G C93A A98G A107C U130G	≤ -4.2
A41C G143C	-2.56
A41C G143A	-1.42
A41C C57U U82C G141A	-1.09
A40U U56A C75G	-3.97

Variant	polymerase ribozyme fitness (log ratio)
A40U C57A G58C C79G	-3.81
A40U C76U	-0.102
A40U G80A C87A U127G A147C	≤ -4.2
A41C A73G U145C	-1.73
A40U A60U	-0.238
A40U A60G	0.828
A41C G48C U56A A89C C103U	-2.34
A40U U82A C95G	-1.43
A40C U55G C63U C93U	-0.65
A41G C76U G84U C85A A97U G100A G140U	≤ -4.2
A40G A41U U53A C123A C125U U134G	-3.73
A40G C93U C99U	-4.16
A40C U45A C54U	≤ -4.2
A40U G92A A119C A120C U148G	≤ -4.2
A41C U102A	-1.07
A40G C99G	-3.79
A40U U55G C96G	-0.541
A40U G92A A120U C132A G141C	≤ -4.2
A40C C96U A150G	-1.3
A40G U56A G67A G83A	≤ -4.2
A40U G92C A147C	-0.761
A40U C87U C105U G136U	-2.13
A41C C57A C99G U104C G126C U144G	-3.09
A40U C95U	-1.07

Variant	polymerase ribozyme fitness (log ratio)
A40C U55A A107G A142G	≤ -4.2
A40G U55G U56A G88C	≤ -4.2
A41C C93U C123U	-1.59
A41C A47C G88U A97U	-4.03
A40U G152U	-3.71
A40U U61A A122G	-1.1
A40U G141U	0.96
A41C U56A C87U U135G	≤ -4.2
A41C C87G C114U	≤ -4.2
A40C U44A U102C U139A A142G A147C U148A A150G	≤ -4.2
A40U G50U A60C A73G C85U U151G	≤ -4.2
A40U G86U C93U C149U	-3.56
A40G G58C G94A G141A	-3.65
A40G U56A G59U G68A C95A U135A A150U	≤ -4.2
A41C U55A C93A	-3.32
A40U A41U G46A C57A C87A G92U	0.0643
A40C U61A A91G A97U G141U	≤ -4.2
A40U G140U	-3.81
A40G U90A	≤ -4.2
A40U A60G A66U A73G A91G C99G	≤ -4.2
A40U C51U G83A	-0.935
A40U A47C C51U U82C C118G	-2.44
A41G C76U C93G A106G A122G C129A G141U	≤ -4.2

From the RNAGym collection of RNA variant scans (doi:10.1073/pnas.2313332121)
